Results published in patent US20260250420A1 (SICHUAN KELUN BIOTECH BIOPHARMACEUTICAL, published 2026).

T1: human PTK7 protein (extracellular sequence of human PTK7 with C-terminal 6×His tag) (human, UniProt Q13308 31-704)
T1 construct: extracellular domain; Expressed transiently in HEK293 cells; also called human PTK7-His; human PTK7-His protein
T1 sequence: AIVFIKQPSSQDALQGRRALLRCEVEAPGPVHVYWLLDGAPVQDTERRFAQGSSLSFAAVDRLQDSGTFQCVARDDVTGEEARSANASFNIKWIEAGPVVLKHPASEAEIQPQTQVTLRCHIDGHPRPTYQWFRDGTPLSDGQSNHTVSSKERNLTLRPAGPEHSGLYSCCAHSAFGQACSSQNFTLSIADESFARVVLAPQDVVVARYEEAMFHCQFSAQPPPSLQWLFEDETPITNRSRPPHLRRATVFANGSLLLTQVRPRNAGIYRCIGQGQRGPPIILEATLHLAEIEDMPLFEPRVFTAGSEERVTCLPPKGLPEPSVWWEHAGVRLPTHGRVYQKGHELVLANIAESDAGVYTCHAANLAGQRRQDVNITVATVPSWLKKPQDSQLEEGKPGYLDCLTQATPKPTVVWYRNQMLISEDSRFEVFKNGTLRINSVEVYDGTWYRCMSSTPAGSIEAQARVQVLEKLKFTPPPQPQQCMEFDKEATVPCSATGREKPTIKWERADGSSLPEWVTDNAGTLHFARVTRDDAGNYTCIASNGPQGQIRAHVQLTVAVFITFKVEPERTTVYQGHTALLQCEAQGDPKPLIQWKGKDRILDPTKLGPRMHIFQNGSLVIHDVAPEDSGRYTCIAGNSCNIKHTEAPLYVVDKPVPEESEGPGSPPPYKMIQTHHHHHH

T2: human PTK7 on cells (tumor cells endogenously expressing PTK7); CHO-hPTK7, CHO-S-hPTK7 and 293T-hPTK7 … (human, UniProt Q13308 31-1070)
T2 construct: whole, on cells; The cell line of each value is named under assay; also called H1299; H358
T2 sequence (looked up): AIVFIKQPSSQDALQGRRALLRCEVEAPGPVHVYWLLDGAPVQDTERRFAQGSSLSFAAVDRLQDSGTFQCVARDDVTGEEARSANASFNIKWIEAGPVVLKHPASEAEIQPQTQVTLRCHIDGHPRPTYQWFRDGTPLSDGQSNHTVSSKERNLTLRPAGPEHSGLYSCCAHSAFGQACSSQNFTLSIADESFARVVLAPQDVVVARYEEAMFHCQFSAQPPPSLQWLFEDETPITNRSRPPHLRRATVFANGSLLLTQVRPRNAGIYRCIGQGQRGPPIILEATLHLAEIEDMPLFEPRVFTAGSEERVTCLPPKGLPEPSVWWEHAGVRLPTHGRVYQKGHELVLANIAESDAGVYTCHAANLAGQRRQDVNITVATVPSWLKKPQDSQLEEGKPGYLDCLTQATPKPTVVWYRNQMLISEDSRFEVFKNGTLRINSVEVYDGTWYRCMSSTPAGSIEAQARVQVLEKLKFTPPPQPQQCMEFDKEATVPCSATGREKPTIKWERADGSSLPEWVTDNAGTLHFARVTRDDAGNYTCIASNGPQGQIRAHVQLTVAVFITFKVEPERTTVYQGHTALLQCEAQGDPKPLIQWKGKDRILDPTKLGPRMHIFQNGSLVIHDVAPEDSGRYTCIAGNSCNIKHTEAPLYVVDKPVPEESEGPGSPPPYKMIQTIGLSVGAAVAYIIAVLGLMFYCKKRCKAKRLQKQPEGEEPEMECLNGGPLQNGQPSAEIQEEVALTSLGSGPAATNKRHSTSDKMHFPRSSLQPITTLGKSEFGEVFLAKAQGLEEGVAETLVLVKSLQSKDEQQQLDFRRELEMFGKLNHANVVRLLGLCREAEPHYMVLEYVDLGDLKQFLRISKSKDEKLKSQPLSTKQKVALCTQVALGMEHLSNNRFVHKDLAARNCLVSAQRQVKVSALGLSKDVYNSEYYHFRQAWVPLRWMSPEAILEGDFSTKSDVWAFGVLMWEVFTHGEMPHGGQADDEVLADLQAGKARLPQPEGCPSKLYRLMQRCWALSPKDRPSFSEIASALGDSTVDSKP

B1: 101A6HZ (anti-human PTK7 humanized antibody) (antibody, human IgG1, kappa)
heavy: not shown
light: DIVMTQSPDSLAVSLGERATINCKASQDVGSAVIWYQQKPGQSPKLLIYWASTRHTGVPDRFSGSGSGTDFTLTISSLQAEDVAVYYCQQYSSYPLTFGQGTKLEIKRTVAAPSVFIFPPSDEQLKSGTASVVCLLNNFYPREAKVQWKVDNALQSGNSQESVTEQDSKDSTYSLSSTLTLSKADYEKHKVYACEVTHQGLSSPVTKSFNRGEC
B2: Hu24 (PTK7 control antibody, taken from Hu24 in the Patent CN201580030255) (antibody)
chain 1: QVQLVQSGPEVKKPGASVKVSCKASGYTFTDYAVHWVRQAPGKRLEWIGVISTYNDYTYNNQDFKGRVTMTRDTSASTAYMELSRLRSEDTAVYYCARGNSYFYALDYWGQGTSVTVSS
chain 2: EIVLTQSPATLSLSPGERATLSCRASESVDSYGKSFMHWYQQKPGQAPRLLIYRASNLESGIPARFSGSGSGTDFTLTISSLEPEDFAVYYCQQSNEDPWTFGGGTKLEIK
B3: 64A10HZ (anti-human PTK7 humanized antibody) (antibody, human IgG1, kappa, V domains shown)
VH: QVQLQESGPGLVKPSETLSLTCTVSGFSLTSYGVYWVRQPPGKGPEWLGVIWTSGNTNYNPSLKSRLTISKDNSKNQVSLKLSSVTAADTAVYYCVKHDGGNYVGVMNYWGQGTLVTVSS
VL: EIVMTQSPDFQSVTPKEKVTITCRASQSISDYLHWYQQKPDQSPKLLIKYASQSISGVPSRFSGSGSGSDFTLTINSLEAEDAATYYCQNGHSFPPTFGQGTKLEIKR
notes: Human IgG1 heavy chain constant region and human Kappa light chain constant region; expressed in CHO-S cells

These binders were tested against T1, human PTK7 protein (extracellular …) (assay: ELISA, coated human PTK7-His protein 1 µg/ml).
Description: The original data was imported into software for nonlinear curve fitting, and the EC₅₀ of binding of each antibody to the human PTK7 was calculated, respectively.

Binder | EC50 [µg/mL]
B1 | 0.0266
B2 | 0.0466
B3 | 0.0155

What follows are binders tested against T2, human PTK7 on cells (tumor cells …) (assay: flow cytometry on H1975 cells).
Source text: A flow cytometer (Beckman, Cytoflex) was used for detecting the affinity of the anti-human PTK7 chimeric and humanized antibodies with human non-small cell lung cancer cells H1299, human lung adenocarcinoma cells H1975, human breast cancer cells T47D, human ovarian cancer cells OVCAR-3 (all purchased from NANJING COBIOER BIOSCIENCES CO., LTD) and CHO-hPTK7 overexpression cells.
The adherent cells were digested by using a pancreatin (Gibco) solution; a proper amount of cells were counted and taken, washed twice by using 1×PBS, and re-suspended in a 1% BSA solution; and then the cells were transferred into a 96-well deep plate at a density of 50 μl/well; a candidate antibody was diluted by using 1% BSA, then 50 μl of diluted antibody was added into the deep plate containing the cells, and incubated for 40 min at 4° C.; the cells were washed twice by using PBS, then 50 μl of diluted secondary antibody was added into each well, uniformly mixed, and incubated for 30 min at 4° C.; and the cells were washed twice by using PBS, then re-suspended in 400 μl of PBS, and subjected to examination by flow cytometer.

Binder | EC50 [µg/mL]
B1 | 0.178
B2 | 0.134
B3 | 0.0767
